Legend:
[1] = target: eGFP-CaMKII (UniProt P11275); assay: number and brightness
[2] = target: nonlabeled αCaMKII (Ca2+/CaM-dependent protein kinase II, alpha) (UniProt P11275); assay: number and brightness

stoichiometry N [1]	molecular brightness, times that of eGFP (times that of eGFP) [2]	Substance
> 3	–	eGFP-CaMKII (from UniProt P11275 1-478) (enzyme)
–	3	enhanced green fluorescent protein (eGFP)-CaM (from UniProt P0DP23 1-149) (natural protein)

Reference: article PMC2599858
